Assay results from patent US20230416388A1 (Bristol-Myers Squibb, published 2023).

How the values were obtained:
[1] = target: mouse GITR (on activated mouse T cells) (mouse) (UniProt O35714); assay: in vitro binding on activated mouse CD4+ T cells
[2] = target: mouse GITR (on activated mouse T cells) (mouse) (UniProt O35714); assay: in vitro binding on activated mouse CD8+ T cells
[3] = target: T1, human GITR (on activated human T cells) (human, UniProt Q9Y5U5 26-241); assay: in vitro binding on activated human CD4+ T cells
T1 construct: also called glucocorticoid-inducible TNF receptor; TNFRSF18
T1 sequence: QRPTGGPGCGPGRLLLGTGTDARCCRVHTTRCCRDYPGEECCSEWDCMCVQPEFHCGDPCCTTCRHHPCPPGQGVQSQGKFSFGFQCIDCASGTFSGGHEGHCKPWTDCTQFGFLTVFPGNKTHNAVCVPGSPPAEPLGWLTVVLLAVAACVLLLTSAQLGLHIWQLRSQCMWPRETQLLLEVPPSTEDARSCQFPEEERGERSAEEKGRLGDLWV

[4] = target: T1, human GITR (on activated human T cells); assay: in vitro binding on activated human CD8+ T cells

Sequence of mouse GITR (on activated mouse T cells) (mouse) (O35714 20-228): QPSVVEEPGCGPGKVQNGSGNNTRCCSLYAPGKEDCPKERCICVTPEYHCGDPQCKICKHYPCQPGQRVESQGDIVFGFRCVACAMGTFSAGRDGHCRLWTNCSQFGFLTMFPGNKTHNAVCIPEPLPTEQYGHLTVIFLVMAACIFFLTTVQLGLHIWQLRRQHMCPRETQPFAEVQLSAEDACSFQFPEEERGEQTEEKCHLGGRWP

DTA1-mIgG2a (antibody)
EC50 [1]: 0.14 nM | EC50 [2]: 0.17 nM

DTA1-mIgG2b (antibody)
EC50 [1]: 0.33 nM | EC50 [2]: 0.33 nM

B1: 28F3.IgG1 (antibody, V domains shown)
VH: QVQLVESGGGVVQPGRSLRLSCAASGFTFSSYGMHWVRQAPGKGLEWVAVIWYEGSNKYYADSVKGRFTISRDNSKNTLYLQMNSLRAEDTAVYYCARGGSMVRGDYYYGMDVWGQGTTVTVSS
VL: AIQLTQSPSSLSASVGDRVTITCRASQGISSALAWYQQKPGKAPKLLIYDASSLESGVPSRFSGSGSGTDFTLTISSLQPEDFATYYCQQFNSYPYTFGQGTKLEIKR
notes: Fully human IgG1 agonist antibody to GITR; also called GITR Ab; anti-GITR agonist Ab 28F3.IgG1
EC50 [3]: 0.37 nM | EC50 [4]: 0.44 nM
